These results are taken from the supplement of paper PMC10899765.

“And” between values parts separate entries of the source, which are not always exact repeats. Equal values may be shown once.

Settings in all cases: 20 nM; 72 h
For data set [1], the system named is MCF10A. As to the kind of experiment: percent viability (nuclei count relative to siNT); higher = more viable cells. On the procedure:
(§1)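 After 72 h, cells were fixed and stained with Hoechst and anti-fibrillarin, and nucleoli per nucleus were counted with CellProfiler. Values are plate-adjusted percent effect for the one-nucleolus and 5+ nucleoli phenotypes, normalised to siNT (0%) and to the positive controls siNOL11 or siKIF11 (100%), as the mean of biological triplicates. Percent viability is the nuclei count relative to siNT.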

The test system of data set [2] is MCF10A. Nature of the data set: 5+ nucleoli phenotype percent effect (relative to siNT 0% and siKIF11 100%); higher = more cells with five or more nucleoli. On the procedure: as §1
For data set [3], the system named is MCF10A. Nature of the data set: one-nucleolus phenotype percent effect (relative to siNT 0% and siNOL11 100%); higher = more cells with one nucleolus (ribosome biogenesis inhibition). As for the experimental part:
as §1

Consider ACUGCCCCAGGUGCUGCUGG [hsa-miR-324-3p], for which the percent viability in the data set with MCF10A [1] is 68%. The “5+ nucleoli phenotype percent effect” value with MCF10A [2] was 37.7%. Besides, the “one-nucleolus phenotype percent effect” value in the data set with MCF10A [3] was -7.87%.
Consider “ACUGCCCUAAGUGCUCCUUCUGG [hsa-miR-18a-3p]”, for which the percent viability in the data set on MCF10A [1] is 58.7%. Besides, the “5+ nucleoli phenotype percent effect” value with MCF10A [2] was 4.11%. In addition, the “one-nucleolus phenotype percent effect” value with MCF10A [3] was -2.39%.
Regarding ACUGCUGAGCUAGCACUUCCCG [hsa-miR-93-3p], in the data set with MCF10A [1], the percent viability is 33.2%. In the data set with MCF10A [2], the “5+ nucleoli phenotype percent effect” value was -7.82%. For the same sequence, in the data set with MCF10A [3], the “one-nucleolus phenotype percent effect” value stood at 0.758%.
For the sequence ACUGGAAUUGGAGUCAAAA [hsa-miR-6128], the percent viability with MCF10A [1] came out at 105%. Also, the “5+ nucleoli phenotype percent effect” value in the data set on MCF10A [2] came to 36.5%. For the same sequence, the “one-nucleolus phenotype percent effect” value in the data set with MCF10A [3] was -18.6%.
Turning to ACUGGACUAGGAGUCAGAAGG [hsa-miR-378i], the percent viability in the data set on MCF10A [1] was determined as 32.1%. For the same sequence, in the data set on MCF10A [2], the “5+ nucleoli phenotype percent effect” value is -12.9%. The “one-nucleolus phenotype percent effect” value in the data set on MCF10A [3] was 4.21%.
On to ACUGGACUUAGGGUCAGAAGGC [hsa-miR-422a], for which the percent viability with MCF10A [1] is 37.8%. Further, the “5+ nucleoli phenotype percent effect” value in the data set on MCF10A [2] is -13.7%. Besides, the “one-nucleolus phenotype percent effect” value with MCF10A [3] is 12.5%.
As to ACUGGACUUGGAGCCAGAAG [hsa-miR-378f], the percent viability with MCF10A [1] was 45.3%. Besides, the “5+ nucleoli phenotype percent effect” value in the data set with MCF10A [2] was found to be 33.7%. Further, the “one-nucleolus phenotype percent effect” value in the data set on MCF10A [3] was -12.4%.
Regarding ACUGGACUUGGAGGCAGAA [hsa-miR-378b], the percent viability in the data set on MCF10A [1] was found to be 36.5%. For the same sequence, in the data set with MCF10A [2], the “5+ nucleoli phenotype percent effect” value was -14.2%. Moreover, the “one-nucleolus phenotype percent effect” value in the data set on MCF10A [3] was found to be 9.39%.
In the case of ACUGGACUUGGAGUCAGAAA [hsa-miR-378d], the percent viability in the data set with MCF10A [1] is 25.4% and 31.6%. Further, the “5+ nucleoli phenotype percent effect” value in the data set on MCF10A [2] was 9.46% and 4.63%. Also, in the data set with MCF10A [3], the “one-nucleolus phenotype percent effect” value is 2.4% and 10.6%.
With “ACUGGACUUGGAGUCAGAAGAGUGG [hsa-miR-378c]”, the percent viability with MCF10A [1] was found to be 22.4%. For the same sequence, the “5+ nucleoli phenotype percent effect” value in the data set with MCF10A [2] is -4.56%. Also, the “one-nucleolus phenotype percent effect” value with MCF10A [3] was -8.35%.
The matching figures for ACUGGACUUGGAGUCAGAAGG [hsa-miR-378a-3p]: 45.2%, 22.6% and 2.26%.
As for “ACUGGACUUGGAGUCAGAAGGC [hsa-miR-378a-3p]”, the percent viability in the data set on MCF10A [1] was found to be 66.7%. Further, the “5+ nucleoli phenotype percent effect” value in the data set on MCF10A [2] came to 13.6%. Moreover, the “one-nucleolus phenotype percent effect” value with MCF10A [3] is -2.19%.
For the sequence ACUGGACUUGGAGUCAGGA [hsa-miR-378e], the percent viability with MCF10A [1] was found to be 26.4%. For the same sequence, the “5+ nucleoli phenotype percent effect” value with MCF10A [2] is -3.63%. Also, the “one-nucleolus phenotype percent effect” value in the data set with MCF10A [3] stood at 11.5%.
Take ACUGGACUUGGUGUCAGAUGG [hsa-miR-378h]: in the data set on MCF10A [1], the percent viability amounted to 80%. The “5+ nucleoli phenotype percent effect” value in the data set on MCF10A [2] worked out at 41%. For the same sequence, the “one-nucleolus phenotype percent effect” value in the data set with MCF10A [3] is -14.6%.
Turning to ACUGGAUUUGGAGCCAGAA [hsa-miR-378j], the percent viability in the data set with MCF10A [1] came out at 42.3%. Besides, in the data set on MCF10A [2], the “5+ nucleoli phenotype percent effect” value was -1.17%. Further, the “one-nucleolus phenotype percent effect” value with MCF10A [3] is -17.6%.
As to “ACUGGCAGAACACUGAAGCAGC [hsa-miR-6868-5p]”, the percent viability in the data set on MCF10A [1] turned out to be 26.9%. In addition, the “5+ nucleoli phenotype percent effect” value in the data set with MCF10A [2] was -21.7%. Moreover, in the data set on MCF10A [3], the “one-nucleolus phenotype percent effect” value is 34.1%.
As for “ACUGGCAUGCUGCAUUUAUAUA [hsa-miR-4799-3p]”, in the data set on MCF10A [1], the percent viability is 66.3%. The “5+ nucleoli phenotype percent effect” value with MCF10A [2] is 50.9%. The “one-nucleolus phenotype percent effect” value in the data set on MCF10A [3] is -19.8%.
In the case of ACUGGCAUUAGUGGGACUUUU [hsa-miR-5588-5p], in the data set with MCF10A [1], the percent viability was determined as 46.1%. Besides, the “5+ nucleoli phenotype percent effect” value in the data set on MCF10A [2] was found to be 33.4%. For the same sequence, the “one-nucleolus phenotype percent effect” value in the data set with MCF10A [3] was -3.93%.
With ACUGGCCUGGGACUACCGG [hsa-miR-3176], the percent viability in the data set on MCF10A [1] is 54.4%. Further, the “5+ nucleoli phenotype percent effect” value in the data set with MCF10A [2] came out at 35.3%. Besides, the “one-nucleolus phenotype percent effect” value in the data set with MCF10A [3] was -13.2%.
In the same order, the values of “ACUGGCUAGGGAAAAUGAUUGGAU [hsa-miR-664a-5p]” are 47.9%, 8.84% and 16.3%.
In the case of “ACUGGGAAGAGGAGCUGAGGGA [hsa-miR-4646-5p]”, the percent viability with MCF10A [1] was 35%. For the same sequence, the “5+ nucleoli phenotype percent effect” value in the data set on MCF10A [2] is -6.37%. Also, the “one-nucleolus phenotype percent effect” value in the data set on MCF10A [3] worked out at 21.9%.
In the case of “ACUGGGAUGUCACUGAAUAUGGU [hsa-miR-6506-5p]”, the percent viability in the data set with MCF10A [1] came out at 28.3%. Besides, the “5+ nucleoli phenotype percent effect” value in the data set with MCF10A [2] is -3.32%. Besides, the “one-nucleolus phenotype percent effect” value in the data set on MCF10A [3] amounted to 25%.
For the sequence ACUGGGCAGGGCUGUGGUGAGU [hsa-miR-6860], the percent viability in the data set with MCF10A [1] worked out at 50.7%. The “5+ nucleoli phenotype percent effect” value in the data set with MCF10A [2] is -5.42%. The “one-nucleolus phenotype percent effect” value with MCF10A [3] is -5.92%.
Turning to ACUGGGGGCUUUCGGGCUCUGCGU [hsa-miR-637], the percent viability in the data set on MCF10A [1] is 22.7%. In addition, in the data set on MCF10A [2], the “5+ nucleoli phenotype percent effect” value was -19.4%. For the same sequence, in the data set with MCF10A [3], the “one-nucleolus phenotype percent effect” value stood at 50.5%.
